# Data reported in US5834244.
# Tests used:
# [1] = biological target: rabbit TF-FVIIa in the PT assay (rabbit thromboplastin with rabbit plasma) (rabbit)
# [2] = biological target: human Factor XIa (human) (UniProt P03951)
# [3] = biological target: human plasma kallikrein (human) (UniProt P03952)
# [4] = biological target: tissue factor-Factor VIIa complex (human Factor VIIa with recombinant human tissue factor 1-243) (human) (UniProt P08709); experiment: chromogenic enzyme inhibition assay under equilibrium conditions; apparent Ki*
# [5] = biological target: tissue factor-Factor VIIa complex (human Factor VIIa with recombinant human tissue factor 1-243) (human) (UniProt P08709); experiment: chromogenic enzyme inhibition assay, FVIIa 10 nM, TF1-243 50 nM; apparent Ki* by fit to the tight-binding equation
# [6] = biological target: tissue factor-Factor VIIa complex (human Factor VIIa with recombinant human tissue factor 1-243) (human) (UniProt P08709); experiment: apparent Ki* for TF-FVIIa; method not told at this place
Substance,"fold increase of clotting time over baseline, PT assay in rabbit plasma (fold increase over baseline at 40 µM) [1]","fold prolongation of clotting time, APTT assay in normal human plasma (fold prolongation at 40 µM inhibitor) [2]","fold prolongation of clotting time, APTT assay in normal human plasma (fold prolongation at 40 µM inhibitor) [3]",Ki [4] [nM],Ki [5] [nM],Ki [6] [nM]
"APPI, Alzheimer's amyloid β-protein precursor inhibitor",1.4,3.6,3.6,301,300,
first Kunitz domain of TFPI,,,,,,600
